Experimental data from publication PMC9482650, “Quantitative fragmentomics allow affinity mapping of interactomes” (Nature Communications, 2022).

T1: MPP7, Q5T2T1
T1 sequence (Q5T2T1 134-230, limits assumed, looked up): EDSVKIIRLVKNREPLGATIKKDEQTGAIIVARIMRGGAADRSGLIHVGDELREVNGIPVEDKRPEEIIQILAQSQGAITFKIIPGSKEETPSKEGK

T2: APBA2_1, Q99767
T2 sequence (Q99767 563-664, limits assumed, looked up): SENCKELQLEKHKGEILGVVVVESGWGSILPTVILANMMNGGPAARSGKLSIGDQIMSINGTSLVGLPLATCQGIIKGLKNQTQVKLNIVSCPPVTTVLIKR

T3: GRIP1_5, Q9Y3R0
T3 sequence (Q9Y3R0 568-668, limits assumed, looked up): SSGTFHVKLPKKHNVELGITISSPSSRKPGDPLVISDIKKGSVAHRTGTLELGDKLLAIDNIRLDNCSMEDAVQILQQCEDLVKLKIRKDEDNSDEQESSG

T4: GRIP1_7, Q9Y3R0
T4 sequence (Q9Y3R0 999-1096, limits assumed, looked up): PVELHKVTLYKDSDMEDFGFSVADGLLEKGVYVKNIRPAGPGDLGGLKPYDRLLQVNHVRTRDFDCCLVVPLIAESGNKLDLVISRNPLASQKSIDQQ

T5: GRIP1_3, Q9Y3R0
T5 sequence (Q9Y3R0 247-346, limits assumed, looked up): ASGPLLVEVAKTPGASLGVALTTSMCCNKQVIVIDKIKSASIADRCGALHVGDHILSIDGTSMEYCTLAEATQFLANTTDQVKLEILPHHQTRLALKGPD

T6: APBA1_1, Q02410
T6 sequence (Q02410 651-752, limits assumed, looked up): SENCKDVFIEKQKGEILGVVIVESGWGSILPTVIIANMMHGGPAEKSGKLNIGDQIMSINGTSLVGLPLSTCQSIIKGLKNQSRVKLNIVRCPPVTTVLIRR

T7: SYNJ2BP, P57105
T7 sequence (P57105 8-110, limits assumed, looked up): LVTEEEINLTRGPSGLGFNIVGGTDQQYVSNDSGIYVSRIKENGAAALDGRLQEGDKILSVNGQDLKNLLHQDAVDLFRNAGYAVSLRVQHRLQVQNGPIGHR

T8: GRIP1_2, Q9Y3R0
T8 sequence (Q9Y3R0 145-248, limits assumed, looked up): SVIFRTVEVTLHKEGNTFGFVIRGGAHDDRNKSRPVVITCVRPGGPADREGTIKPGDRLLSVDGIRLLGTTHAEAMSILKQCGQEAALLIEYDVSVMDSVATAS

T9: TJP3_3, O95049
T9 sequence (O95049 375-456, limits assumed, looked up): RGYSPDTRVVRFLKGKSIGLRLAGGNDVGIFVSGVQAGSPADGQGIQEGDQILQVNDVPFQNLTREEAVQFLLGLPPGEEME


Columns and labels:
Assay in all cases: holdup assay
Design in all cases: key: below the threshold = too weak to quantify, mostly under pKd 3.1 to 4
Conditions in all cases: plain residues with an end cap or a label only (N-terminal biotin on a linker: ado-ado)
TJP2_1, Q9UDY2 = molecular target: TJP2_1, Q9UDY2
TJP2_1, Q9UDY2, sequence (Q9UDY2 24-128): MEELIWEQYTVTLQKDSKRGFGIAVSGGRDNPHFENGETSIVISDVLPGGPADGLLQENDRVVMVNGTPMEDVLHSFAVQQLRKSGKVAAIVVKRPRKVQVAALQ

MPP7, Q5T2T1 = molecular target: T1, MPP7, Q5T2T1
GORASP2, Q9H8Y8 = molecular target: GORASP2, Q9H8Y8
HTRA2, O43464 = molecular target: HTRA2, O43464
HTRA2, O43464, sequence (O43464 355-458): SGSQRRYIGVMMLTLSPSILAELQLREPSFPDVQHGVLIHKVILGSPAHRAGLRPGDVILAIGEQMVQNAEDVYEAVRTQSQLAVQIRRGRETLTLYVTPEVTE

APBA2_1, Q99767 = molecular target: T2, APBA2_1, Q99767
GRIP1_5, Q9Y3R0 = molecular target: T3, GRIP1_5, Q9Y3R0
GRIP1_7, Q9Y3R0 = molecular target: T4, GRIP1_7, Q9Y3R0
GRIP1_3, Q9Y3R0 = molecular target: T5, GRIP1_3, Q9Y3R0
MAGI2_2, Q86UL8 = molecular target: MAGI2_2, Q86UL8
MAGI2_2, Q86UL8, sequence (Q86UL8 410-522): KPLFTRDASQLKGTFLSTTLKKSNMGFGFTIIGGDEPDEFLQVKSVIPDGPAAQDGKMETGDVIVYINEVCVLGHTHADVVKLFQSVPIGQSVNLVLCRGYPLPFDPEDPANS

APBA1_1, Q02410 = molecular target: T6, APBA1_1, Q02410
GRIP2_5, Q9C0E4 = molecular target: GRIP2_5, Q9C0E4
GRIP2_5, Q9C0E4, sequence (Q9C0E4 544-642): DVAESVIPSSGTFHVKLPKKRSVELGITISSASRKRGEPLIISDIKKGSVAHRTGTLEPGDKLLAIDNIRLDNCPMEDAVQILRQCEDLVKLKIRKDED

SYNJ2BP, P57105 = molecular target: T7, SYNJ2BP, P57105
MAGI2_4, Q86UL8 = molecular target: MAGI2_4, Q86UL8
MAGI2_4, Q86UL8, sequence (Q86UL8 772-865): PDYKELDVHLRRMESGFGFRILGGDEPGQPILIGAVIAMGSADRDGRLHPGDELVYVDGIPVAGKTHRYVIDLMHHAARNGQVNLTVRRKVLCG

GRIP1_2, Q9Y3R0 = molecular target: T8, GRIP1_2, Q9Y3R0
GRIP2_7, Q9C0E4 = molecular target: GRIP2_7, Q9C0E4
GRIP2_7, Q9C0E4, sequence (Q9C0E4 934-1023): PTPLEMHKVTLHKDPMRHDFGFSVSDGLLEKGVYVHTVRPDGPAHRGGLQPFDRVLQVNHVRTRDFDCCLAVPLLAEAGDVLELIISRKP

GRID2IP_1, A4D2P6 = molecular target: GRID2IP_1, A4D2P6
GRID2IP_1, A4D2P6, sequence (A4D2P6 1-87): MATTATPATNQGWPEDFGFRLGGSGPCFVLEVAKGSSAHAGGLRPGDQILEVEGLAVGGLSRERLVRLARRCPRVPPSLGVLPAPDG

LAP2, Q96RT1 = molecular target: LAP2, Q96RT1
LAP2, Q96RT1, sequence (Q96RT1 other isoform, or with tags, fused parts or gaps): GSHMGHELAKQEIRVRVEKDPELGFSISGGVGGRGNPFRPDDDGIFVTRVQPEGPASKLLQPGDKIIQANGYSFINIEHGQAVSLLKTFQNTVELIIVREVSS

FRMPD4, Q14CM0 = molecular target: FRMPD4, Q14CM0
FRMPD4, Q14CM0, sequence (Q14CM0 67-160): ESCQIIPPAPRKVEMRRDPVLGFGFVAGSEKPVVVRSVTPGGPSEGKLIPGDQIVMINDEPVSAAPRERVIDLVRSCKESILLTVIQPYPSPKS

CASK, O14936 = molecular target: CASK, O14936
CASK, O14936, sequence (O14936 487-570): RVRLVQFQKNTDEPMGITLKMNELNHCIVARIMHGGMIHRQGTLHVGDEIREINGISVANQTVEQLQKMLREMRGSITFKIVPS

GRIP2_4, Q9C0E4 = molecular target: GRIP2_4, Q9C0E4
GRIP2_4, Q9C0E4, sequence (Q9C0E4 446-548): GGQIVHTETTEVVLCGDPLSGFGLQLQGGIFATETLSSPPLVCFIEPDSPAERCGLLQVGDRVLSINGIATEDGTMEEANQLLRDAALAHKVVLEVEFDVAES

TJP3_3, O95049 = molecular target: T9, TJP3_3, O95049
SCRIB_2, Q14160 = molecular target: SCRIB_2, Q14160
SCRIB_2, Q14160, sequence (Q14160 857-960): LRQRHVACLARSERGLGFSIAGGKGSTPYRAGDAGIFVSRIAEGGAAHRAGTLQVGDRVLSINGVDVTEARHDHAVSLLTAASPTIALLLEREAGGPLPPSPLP

GRIP2_6, Q9C0E4 = molecular target: GRIP2_6, Q9C0E4
GRIP2_6, Q9C0E4, sequence (Q9C0E4 648-740): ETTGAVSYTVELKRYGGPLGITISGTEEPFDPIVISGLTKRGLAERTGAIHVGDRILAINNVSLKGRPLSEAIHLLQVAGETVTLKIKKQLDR

PDZRN4_1, Q6ZMN7 = molecular target: PDZRN4_1, Q6ZMN7
PDZRN4_1, Q6ZMN7, sequence (Q6ZMN7 213-318): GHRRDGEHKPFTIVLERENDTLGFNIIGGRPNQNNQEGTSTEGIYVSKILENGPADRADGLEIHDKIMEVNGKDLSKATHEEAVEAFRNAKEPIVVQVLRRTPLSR

DLG5_1, Q8TDM6 = molecular target: DLG5_1, Q8TDM6
DLG5_1, Q8TDM6, sequence (Q8TDM6 617-713): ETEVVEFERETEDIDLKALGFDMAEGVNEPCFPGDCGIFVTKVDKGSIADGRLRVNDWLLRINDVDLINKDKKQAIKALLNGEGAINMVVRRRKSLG

SNX27, Q96L92 = molecular target: SNX27, Q96L92
SCRIB_1, Q14160 = molecular target: SCRIB_1, Q14160
SCRIB_1, Q14160, sequence (Q14160 718-814): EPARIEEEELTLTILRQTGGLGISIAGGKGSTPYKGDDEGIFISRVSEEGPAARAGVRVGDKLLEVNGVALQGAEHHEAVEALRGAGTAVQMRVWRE

Inadl_2, Q8NI35 = molecular target: Inadl_2, Q8NI35
Inadl_2, Q8NI35, sequence (Q8NI35 238-335): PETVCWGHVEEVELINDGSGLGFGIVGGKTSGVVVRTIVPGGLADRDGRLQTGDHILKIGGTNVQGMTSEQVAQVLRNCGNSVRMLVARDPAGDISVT

| Binder | pKd (TJP2_1, Q9UDY2) | pKd (MPP7, Q5T2T1) | pKd (GORASP2, Q9H8Y8) | pKd (HTRA2, O43464) | pKd (APBA2_1, Q99767) | pKd (GRIP1_5, Q9Y3R0) | pKd (GRIP1_7, Q9Y3R0) | pKd (GRIP1_3, Q9Y3R0) | pKd (MAGI2_2, Q86UL8) | pKd (APBA1_1, Q02410) | pKd (GRIP2_5, Q9C0E4) | pKd (SYNJ2BP, P57105) | pKd (MAGI2_4, Q86UL8) | pKd (GRIP1_2, Q9Y3R0) | pKd (GRIP2_7, Q9C0E4) | pKd (GRID2IP_1, A4D2P6) | pKd (LAP2, Q96RT1) | pKd (FRMPD4, Q14CM0) | pKd (CASK, O14936) | pKd (GRIP2_4, Q9C0E4) | further results |
| --- | --- | --- | --- | --- | --- | --- | --- | --- | --- | --- | --- | --- | --- | --- | --- | --- | --- | --- | --- | --- | --- |
| IKLETKKTKL [SLC15A2, Q16348] | 3.85 | below the threshold | below the threshold | 3.52 | 3.5 | below the threshold | below the threshold | below the threshold | 3.47 | below the threshold | 3.58 | below the threshold | below the threshold | below the threshold | below the threshold | below the threshold | below the threshold | below the threshold | below the threshold | below the threshold | pKd (TJP3_3, O95049): below the threshold; pKd (SCRIB_2, Q14160): below the threshold; pKd (GRIP2_6, Q9C0E4): 3.48; pKd (PDZRN4_1, Q6ZMN7): 3.56; pKd (DLG5_1, Q8TDM6): 3.53; pKd (SNX27, Q96L92): 3.94; pKd (SCRIB_1, Q14160): 3.79; pKd (Inadl_2, Q8NI35): below the threshold |
| PLATCDETSI [SEMA4F, O95754] | below the threshold | 3.54 | below the threshold | below the threshold | below the threshold | below the threshold | below the threshold | below the threshold | below the threshold | below the threshold | below the threshold | 4.62 | below the threshold | below the threshold | below the threshold | below the threshold | below the threshold | below the threshold | below the threshold | below the threshold | pKd (TJP3_3, O95049): below the threshold; pKd (SCRIB_2, Q14160): 4.39; pKd (GRIP2_6, Q9C0E4): below the threshold; pKd (PDZRN4_1, Q6ZMN7): 4.33; pKd (DLG5_1, Q8TDM6): below the threshold; pKd (SNX27, Q96L92): 5.26; pKd (SCRIB_1, Q14160): 4.92; pKd (Inadl_2, Q8NI35): below the threshold |
| GQNMTVSVVI [PRLHR, P49683] | below the threshold | below the threshold | below the threshold | below the threshold | below the threshold | below the threshold | below the threshold | below the threshold | below the threshold | below the threshold | below the threshold | 3.47 | below the threshold | below the threshold | below the threshold | below the threshold | below the threshold | below the threshold | below the threshold | below the threshold | pKd (TJP3_3, O95049): below the threshold; pKd (SCRIB_2, Q14160): below the threshold; pKd (GRIP2_6, Q9C0E4): 4.15; pKd (PDZRN4_1, Q6ZMN7): below the threshold; pKd (DLG5_1, Q8TDM6): 3.97; pKd (SNX27, Q96L92): 4.34; pKd (SCRIB_1, Q14160): 3.65; pKd (Inadl_2, Q8NI35): below the threshold |
| GTMFLRETSL [GUCY1A2, P33402] | below the threshold | below the threshold | below the threshold | below the threshold | below the threshold | below the threshold | below the threshold | below the threshold | 4.29 | below the threshold | below the threshold | 5.41 | below the threshold | below the threshold | 3.84 | below the threshold | 3.85 | 4.35 | below the threshold | below the threshold | pKd (TJP3_3, O95049): below the threshold; pKd (SCRIB_2, Q14160): 5.15; pKd (GRIP2_6, Q9C0E4): below the threshold; pKd (PDZRN4_1, Q6ZMN7): 5.71; pKd (DLG5_1, Q8TDM6): below the threshold; pKd (SNX27, Q96L92): 5.72; pKd (SCRIB_1, Q14160): 5.69; pKd (Inadl_2, Q8NI35): below the threshold |
